The values that follow come from publication PMC3597659.

Like-named read-outs stand apart in the source and are kept apart here.

The target in series [1] is T1, RAG1c (core RAG1) (Mus musculus, UniProt P15919 384-1008).
T1 sequence: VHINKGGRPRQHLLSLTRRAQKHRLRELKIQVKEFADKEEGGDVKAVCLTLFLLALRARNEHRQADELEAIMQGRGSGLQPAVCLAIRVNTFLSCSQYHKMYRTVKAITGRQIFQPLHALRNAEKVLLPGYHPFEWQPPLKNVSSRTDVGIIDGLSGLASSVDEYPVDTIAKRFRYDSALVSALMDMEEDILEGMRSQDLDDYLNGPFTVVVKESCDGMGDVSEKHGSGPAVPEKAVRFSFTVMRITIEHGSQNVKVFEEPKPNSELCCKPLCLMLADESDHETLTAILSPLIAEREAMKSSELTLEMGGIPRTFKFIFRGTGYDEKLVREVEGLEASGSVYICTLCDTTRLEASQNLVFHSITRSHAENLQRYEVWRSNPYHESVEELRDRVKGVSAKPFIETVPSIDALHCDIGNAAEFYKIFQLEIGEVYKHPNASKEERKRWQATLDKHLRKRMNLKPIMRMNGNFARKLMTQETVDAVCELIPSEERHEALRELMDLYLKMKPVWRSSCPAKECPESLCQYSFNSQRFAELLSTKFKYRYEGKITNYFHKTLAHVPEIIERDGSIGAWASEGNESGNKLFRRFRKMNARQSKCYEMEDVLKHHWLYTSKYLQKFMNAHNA
Briefly: fluorescence anisotropy.

The target of series [2] is T2, HMGB1-WT (Homo sapiens, UniProt P09429 2-215). The series can be described thus: fluorescence anisotropy.
T2 sequence (P09429 2-215): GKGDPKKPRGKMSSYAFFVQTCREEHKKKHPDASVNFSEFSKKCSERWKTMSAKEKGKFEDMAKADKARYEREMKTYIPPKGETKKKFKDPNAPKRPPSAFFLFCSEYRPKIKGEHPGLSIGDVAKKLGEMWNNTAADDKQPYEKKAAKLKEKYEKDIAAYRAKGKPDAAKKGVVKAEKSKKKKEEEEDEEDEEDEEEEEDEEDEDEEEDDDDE
Series [3] addresses HMGB1-A488;RAG1c (core RAG1) (Homo sapiens;Mus musculus, UniProt P09429;P15919 2-215;384-1008, C23A;A34C;C45A;C106A|). Briefly: fluorescence anisotropy.
For series [4], the target named is T1, RAG1c (core RAG1). Briefly: fluorescence anisotropy. This is another data set of the same source.
Series [5] deals with T2, HMGB1-WT. The series can be described thus: fluorescence anisotropy. The source holds these as a separate data set.
For series [6], the target named is HMGB1-WT;RAG1c (core RAG1);GST-RAG2c (core RAG2) (Homo sapiens;Mus musculus;Mus musculus, UniProt P09429;P15919;P21784 2-215;384-1008;1-387, ||). Briefly: EMSA.
HMGB1-WT;RAG1c (core RAG1);GST-RAG2c (core RAG2), sequence (P09429 2-215, chain 1 of 2): as the sequence (P09429 2-215) above
HMGB1-WT;RAG1c (core RAG1);GST-RAG2c (core RAG2), sequence (P21784 1-387, chain 3 of 2): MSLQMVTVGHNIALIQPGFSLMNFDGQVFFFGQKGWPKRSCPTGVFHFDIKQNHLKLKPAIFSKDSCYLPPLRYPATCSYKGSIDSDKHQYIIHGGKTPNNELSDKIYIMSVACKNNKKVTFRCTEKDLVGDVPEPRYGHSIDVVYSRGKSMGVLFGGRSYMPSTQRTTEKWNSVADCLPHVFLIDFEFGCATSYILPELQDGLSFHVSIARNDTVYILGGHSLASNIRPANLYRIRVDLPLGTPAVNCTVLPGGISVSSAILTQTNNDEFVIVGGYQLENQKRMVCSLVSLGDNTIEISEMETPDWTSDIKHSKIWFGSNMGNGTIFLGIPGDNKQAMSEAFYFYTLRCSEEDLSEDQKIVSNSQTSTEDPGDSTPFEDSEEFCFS
In series [7] the target is T3, HMGB1-WT;RAG1c (core RAG1) (Homo sapiens;Mus musculus, UniProt P09429;P15919 2-215;384-1008, |). Briefly: pull-down.
T3 sequence (P09429 2-215, one chain of several): as the sequence (P09429 2-215) above
In series [8] the target is T3, HMGB1-WT;RAG1c (core RAG1). The series can be described thus: pull-down. The source holds these as a separate data set.
Series [9] addresses T2, HMGB1-WT. Briefly: pull-down.
Another series addresses HMGB1-A488 (Homo sapiens, UniProt P09429 2-215, C23A;A34C;C45A;C106A). Briefly: EMSA.

HMGB1-A488;RAG1c (core RAG1), sequence (P09429 2-215 C23A/A34C/C45A/C106A, one chain of several): as the sequence (P09429 2-215) above, with C22A, A33C, C44A, C105A counted along it
HMGB1-A488, sequence (P09429 2-215 C23A/A34C/C45A/C106A): as the sequence (P09429 2-215) above, with C22A, A33C, C44A, C105A counted along it

B1: 23MUT-A488 (dsDNA)
DNA 1: GATCTGGCCTGTCTTAACGCAGTATGGAAGCTCAATCTGAACTCTGTGTCTCTGATCGAGCGGAG
DNA 2: CTCCGCTCGATCAGAGACACAGAGTTCAGATTGAGCTTCCATACTGCGTTAAGACAGGCCAGATC
With B1, the Kd in the series with RAG1c (core RAG1) [1] came to 104 nM; with HMGB1-WT [2], 66 nM.

B2: 23MUT (dsDNA)
DNA 1: B1 DNA 1
DNA 2: B1 DNA 2
Regarding B2, the binding result in series [3] is listed as “binds”.

B3: 23RSS-A488 (dsDNA)
DNA 1: GATCTGGCCTGTCTTACACAGTGATGGAAGCTCAATCTGAACTCTGACAAAAACCTCGAGCGGAG
DNA 2: CTCCGCTCGAGGTTTTTGTCAGAGTTCAGATTGAGCTTCCATCACTGTGTAAGACAGGCCAGATC
Take B3: the equilibrium dissociation constant (Kd) in the series with RAG1c (core RAG1) [4] was 78 nM; with HMGB1-WT [5] it was 57 nM.

B4: 32P-23RSS (dsDNA)
DNA 1: B3 DNA 1
DNA 2: B3 DNA 2
Turning to B4, the binding result in [6] is listed as “binds”.

B5: 23RSS (dsDNA)
DNA 1: B3 DNA 1
DNA 2: B3 DNA 2
Consider B5, for which the binding result in series [3] is reported as “binds”.

B6: 23RSS-biotin (dsDNA)
DNA 1: B3 DNA 1
DNA 2: B3 DNA 2
As for B6, the binding result in series [7] is “binds”.

B7: 23SCR-biotin (dsDNA)
DNA 1: GCTGCGTCTCAAGTTACGCTGCGAGGAATCCTGGTAAGATCTGCGTTAAGTCGGATTCATCTACG
DNA 2: CGTAGATGAATCCGACTTAACGCAGATCTTACCAGGATTCCTCGCAGCGTAACTTGAGACGCAGC
Regarding B7, the binding result (in series [8]; with HMGB1-WT [9]) was “binds” throughout.

B8: 23SCR (dsDNA)
DNA 1: B7 DNA 1
DNA 2: B7 DNA 2
With B8, the binding result in series [3] was “binds”.

B9: four-way junction (4WJ) (structured_DNA)
DNA 1: CCTCCGTCCTAGCAAGGGGCTGCTACCGGAAGGG
DNA 2: CCCTTCCGGTAGCAGCCTGAGCGGTGGTTGAAGG
DNA 3: CCTTCAACCACCGCTCAACTCAACTGCAGTCTGG
DNA 4: CCAGACTGCAGTTGAGTCCTTGCTAGGACGGAGG
Turning to B9, the binding result with HMGB1-A488 is “binds”.
